# Experimental data: the RNAGym collection of RNA variant scans (doi:10.7554/elife.90254)
# B1: LINE1-full (parent)
# chain: UACGUAGGUGGUUUUCCCCUGAUAGUGCUAAGGGGGCCUGGAAGUUUGGACUGGGCAGAGCUCAACACAGCGUGGCAAAGUGGCUGUGGCUAGACUGCCUCUCUGGAUUCCUCGUCACUCAGCAGGGCAUCUCUGAGAGAAAUGCC
# Variants of: B1
# Assay: self-cleavage, relative activity (ratio to wild type); higher = more cleavage; in vitro, sequencing; the parent is a self-cleaving ribozyme
row,Variant,self-cleavage
1,G55C U87C,0.37
2,U52G A142G,0.51
3,U52A C99U,0.64
4,U52C C120U,1.77
5,G53C U96C,0.09
6,U52A G137A,0.99
7,U52A G137U,1.06
8,U52A A142G,1.46
9,G53A U130A,1.21
10,C56G,0.07
11,C56A,0.05
12,C56U,0.11
13,C51U A124U,2.12
14,U52A U102A,1.03
15,U52C A78G,1
16,U52C U108C,1.68
17,U52C C71A,0.13
18,C51G U96A,0.05
19,G55U C113U,0.07
20,U52A U134A,1.04
21,U52A U134C,2.25
22,U52C A59G,0.16
23,U52C A65G,0.07
24,U52C G126A,1.18

row,Variant,self-cleavage
1,U52C G126U,1.31
2,G53A A117G,2.04
3,C51A C111U,1.07
4,G55C C146U,0.25
5,U52C U143G,1.6
6,U52C U143C,1.67
7,U52C U100C,2.25
8,U52C U100A,0.63
9,G55A C131G,0.35
10,G53A A141G,1.26
11,C56U G74A,0.09
12,G53A A124U,1.28
13,C56A U134C,0.07
14,C56A U96A,0.03
15,U52C U87A,0.08
16,U52C U87G,0
17,G55U A142G,0.11
18,U52A C113A,1.24
19,U52G U119A,0.93
20,C51U G127A,1.35
21,G54A U130C,0.9
22,U52C C113U,0.99
23,U52C A57U,0.08
24,U52C A57G,0.4

row,Variant,self-cleavage
1,G53U A64G,0.16
2,G54U U115A,0.74
3,U52G C110G,1.31
4,G53C U115C,1.96
5,G55C A142G,0.06
6,U52C A141U,1.14
7,U52C A141G,1.25
8,U52A A77G,2.06
9,U52A A64U,0.46
10,U52G U62C,0.09
11,U52C U73A,1.21
12,U52C U73C,0.54
13,U52A A79G,1.09
14,U52G U108C,1.94
15,U52G U109A,2.14
16,C51U U104A,1.02
17,U52C C111A,1.14
18,C51A A67G,0.63
19,C51A A67U,0.1
20,U52C G127A,0.93
21,U52G U100A,0.43
22,G54A U115C,1.27
23,G54A U115G,1.02
24,G55A G125C,0.15

row,Variant,self-cleavage
1,C56G A129C,0.08
2,G53A A138G,1.72
3,C51A A140G,1.04
4,U52A C111A,1.25
5,G54A G72A,0.45
6,C51U U119C,1.73
7,G53A A121U,1.7
8,G55A A142G,0.27
9,C51U A129U,1.63
10,G55A A65G,0.03
11,G54A A94G,0.15
12,G54U A129G,1.02
13,U52A A94G,0.33
14,U52A A94U,0.52
15,G54A A121U,0.85
16,U52A G58A,0
17,G53U A94G,0.2
18,G54A A140G,0.73
19,U52C C128A,0.71
20,G53A G88A,0.07
21,G53U U87A,0.05
22,U52C G53U,1.6
23,G53A U96C,0
24,G55C A94C,0

row,Variant,self-cleavage
1,U52C A92C,0
2,U52C A92U,0.52
3,U52C A138G,1.48
4,U52C A138U,1.5
5,C56U U85G,0.03
6,C56U U85C,0.07
7,G53U A69U,0.01
8,G53U A57C,0.01
9,G53A U62C,0.05
10,G53A U85A,0.14
11,G53A U85C,0.2
12,G53A A142G,1.3
13,A57C A65G,0
14,C56U A78G,0.06
15,C56U A78U,0.15
16,C56U A65G,0.03
17,U52A G54U,1.84
18,U52C G58U,0.04
19,A57C A107U,0.07
20,G54C A138G,1.35
21,U52G G72A,0
22,G55A A141G,0.11
23,C51U A140G,1.09
24,U52A U100A,1.29

row,Variant,self-cleavage
1,G54A U81A,0.78
2,C51U A57G,0.17
3,G53A A59G,0.06
4,G55A U115A,0.21
5,G55A U115C,0.63
6,U52A A107G,0.98
7,G54A U134G,0.76
8,U52A A65U,0.21
9,U52A A65G,0.04
10,U52G U104A,1
11,U52C G75A,0.9
12,G55C A129U,0.09
13,G53A U73A,1.88
14,G53A U73G,1.05
15,U52C G125U,1.15
16,U52C G72U,0.41
17,C51A U109C,1.35
18,G55A U108C,0.52
19,G55U U102C,0.06
20,C56U A77U,0.11
21,U52C U119C,1.86
22,U52C A136U,0.81
23,U52C A136G,2.9
24,G54A A138G,0.84

row,Variant,self-cleavage
1,U52C A107U,1.63
2,C56G A77G,0.04
3,C51U U62A,0.07
4,U52A G144A,1.44
5,U52C C98G,0.17
6,U52A C123U,1.11
7,C56U A129U,0.23
8,U52G A140G,1.81
9,G54A G125U,0.69
10,U52C A142G,1.02
11,U52A G127A,1.63
12,G55A C110U,0.53
13,U52C A64C,0.51
14,U52A U104A,2.03
15,U52A U104G,1.53
16,U52A U104C,1.36
17,G55A U85C,0.06
18,U52A U109C,1.21
19,C56U C128U,0.22
20,G54A U96C,0.04
21,G54A U96A,0.03
22,G54A A107G,0.47
23,G54U A117G,0.52
24,U52C U134A,1.07

row,Variant,self-cleavage
1,U52C U62G,0
2,C51A G53A,1.92
3,U52G U112C,0.99
4,U52G U112A,0.56
5,G55A G114U,0.22
6,G54A C116A,0.47
7,G53A U112C,1.25
8,G54C U104C,1.3
9,U52C G144A,1.73
10,U52A A140G,1.08
11,U52C A79G,0.75
12,G53A A136U,1.47
13,C56U A92G,0.06
14,G53U U130C,1.5
15,G53A U143C,1.59
16,G53U A65U,0.27
17,A57C A94G,0.25
18,U52C G80A,1.82
19,C56U U73C,0.25
20,C56U U73A,0.08
21,C56U U119C,0.21
22,U52A U132C,1.48
23,U52A U132A,1.18
24,U52C A117G,1.04

row,Variant,self-cleavage
1,U52C A117C,0.42
2,U52C G82A,1.7
3,U52A A141C,1.48
4,U52A A141U,1.35
5,C56U A69U,0.02
6,C56U A69G,0.02
7,U52G C101U,1.55
8,C56A G106A,0.08
9,U52A A138G,1.57
10,U52A C131U,1.46
11,C51U A79G,1.53
12,U52C G55A,0.14
13,U52C U112A,0.99
14,G55A U96C,0.04
15,G55A U96A,0.05
16,C51U A142C,1.25
17,C51U A142G,1.7
18,U52C U115C,1.64
19,G54U A64G,0.21
20,C51U,1.3
21,C51G,1.63
22,G54A U112A,0.83
23,U52G U91C,1.23
24,G55C A67G,0.05

row,Variant,self-cleavage
1,U52C G74U,1.79
2,U52A A67U,0.05
3,U52A A67G,0.38
4,U52A U87C,0.29
5,C51A A107U,1.3
6,G54A A79G,0.4
7,G55U C133A,0.26
8,U52A A129G,1.3
9,G54A C145U,0.54
10,G55A U73A,0.12
11,C51U A117G,1.5
12,C51U A117C,1.28
13,G53A U108A,0.14
14,G53A G74A,1.04
15,U52C A121U,1.5
16,C51A U96A,0.11
17,C56U A142G,0.11
18,U52A C84U,0.14
19,G55U U134G,0.15
20,U52C U91G,0.17
21,U52G A67G,0.64
22,G55C U73A,0.07
23,A57C A67U,0.14
24,C56A U130G,0.03

row,Variant,self-cleavage
1,G55C A57U,0.02
2,C51U U85C,0.19
3,U52C A67G,0.61
4,G55A U87C,0.04
5,U52G U87C,0.69
6,G55U U96C,0.08
7,U52A G135C,1.82
8,G53A A79G,0.71
9,G54A U85C,0.03
10,C56U U109C,0.03
11,U52C C84U,0.15
12,U52G U132C,1.42
13,C51U G89U,0.03
14,G55A A92G,0.03
15,U52C G106U,0.8
16,G53A U132C,1.29
17,U52A U108C,1.66
18,U52A A121G,1.74
19,U52A U112C,1.43
20,G55A A79G,0.4
21,G55A U109C,0.1
22,C51U C131A,1.23
23,U52A U91G,0.08
24,C51U U96C,0.12

row,Variant,self-cleavage
1,G55C G72A,0.08
2,G54A U119A,0.55
3,U52C A129U,1.61
4,G54A U104A,0.18
5,G54A U104C,0.44
6,G54A,0.61
7,G54U,0.67
8,G54C,0.86
9,C51A A57G,0.48
10,C56U A57G,0.04
11,C56G A79G,0.1
12,U52C A124G,0.48
13,U52C A124U,1.48
14,G53U U73C,1.22
15,U52A A92G,0.11
16,G55A,0.19
17,G55C,0.08
18,G55U,0.19
19,C56U U134C,0.23
20,G53U U91C,0.54
21,C51U A78G,1.09
22,C51U A78U,2.19
23,C56U A59G,0.05
24,G54A A117C,1.1

row,Variant,self-cleavage
1,G54A A117U,1.1
2,A57C A129G,0.14
3,A57C A78G,0
4,C51U A67C,0.05
5,G53C A64G,0.22
6,G53C U81C,1.34
7,G54A A142G,0.83
8,G54A U73C,0.67
9,C56A A124G,0.03
10,C56U A107G,0.1
11,G53A U134A,1.23
12,G53A C103A,1.43
13,U52G A64U,0.7
14,U52G A64G,0.32
15,U52C U132A,1.88
16,U52C U132G,1.93
17,G55A A64G,0
18,C56U U132C,0.2
19,G54U G82A,1.26
20,G54A A57C,0.07
21,U52A U85G,0.22
22,U52A U85A,0.1
23,C51G U62C,0.08
24,U52A U130C,1.42

row,Variant,self-cleavage
1,C56U U130C,0
2,G53A U91C,0.53
3,G55C A65G,0.06
4,C56U C76U,0.34
5,U52C U96C,0.02
6,U52G U85A,0.17
7,G55A U102C,0.17
8,U52G A124G,1.57
9,G53U U81C,2
10,C56U U96A,0.03
11,U52C C146U,2.19
12,U52C G137A,0.89
13,C56U A117G,0.18
14,C51U C145G,1.28
15,G53A C146U,1.31
16,U52A A69G,0.71
17,U52G G58A,0.09
18,G54A U108C,0.89
19,U52A U81A,1.49
20,U52G A141G,1.72
21,G54A A69C,0.04
22,C56A C120U,0.17
